Experimental findings from the DeepSol protein solubility set are described below.

The data set can be described thus: soluble on expression in E. coli; label from the status in PepcDB or PDB records.
In the case of “MSLSRLSEKKGFNFNIIKNDPLDGHKGTNIGSISLDNIAPVFIDIENQKAFVDIGGMHARAEVEKGVKWITDKSQVEGEEAKAYWLCWVTTERSEQGPYYAGVTACYLLVNKSIRRGYKSMPEHVNMMDKSMKHQFIIDQIGDDNKQILKEFLQNHNVEMWNNSSEELYRTFEEGHHHHTTDPNSSSVDKLAAALEHHHHHH”, the “soluble on expression in E. coli” value is on record as “soluble”.

Turning to “MAPDVFTVVAEPQRRRILERLRAGHASVGELVDQLALPQPTVSKHLRVLRQAGFVTCRTAAQQRIYSLHREPFDEFDAWLQPYRRLWANHLDALGRHLESKETPS”, the “soluble on expression in E. coli” value was “not soluble”.

“MLPFLFFSTLFSSIFTEAQKQYWVCNSSDASISYTYCDKMQYPISINVNPCIELKGSKGLLHIFYIPRRDLKQLYFNLYITVNTMNLPKRKEVICRGSDDDYSFCRALKGETVNTTISFSFKGIKFSKGKYKCVVEAISGSPEEMLFCLEFVILHQPNSNLEHHHHHH”: the “soluble on expression in E. coli” value is recorded as “not soluble”.

Consider “SLMHHALHIKNGIVIDPKNGVKAEKMDIFVKNGKIVEESEVKGEDVKVIDANNKLVVAGGVDMHAHIAGSKINTGRTMRPEEMRVVRNIAGKFRAAVGRVLLTSPAIGYEYAKMGYTISIEAAQPPIGSPHTHEELDAIPMIDKAALPVFGNWHFVLKYVAEKDMEKLKAFIAWAIERTKGFGVKVVNPGGVGAWMYGGNVTSLDDQVPGFNVTPREIITSLVKATEELQLNHSVHLHCNRLGVPGNYETTVESIKLVDGIRNDARQVLHVTHVQFNAYAGDSWRTVASGAEAIAKTVNSMDNVTIDMGQPIFGHATAMTGDAPFQFTLHKLTGSRWSNKDSEIEGGAGIVPIAYLPKNPVHALQWAIGLELGLLIDSDKVVLTTDYPNGGPFTEYPYIMAMLMSKKMREGELERVSPFVQKASNLPAIDTEKTLEEVIHMTRSLPARVLGLPQKGHLGVGADADIAIYDLNPLDVDTSNDFEKVYKAFKTAVYTIKDGQILVKDGELVDEYWGRTYWVDATGKADMEAIKDDLNEMFSKYYTVELQNYGVEERWLRKPERIVI”, for which the “soluble on expression in E. coli” value was “not soluble”.

As for “MTTVRQRIDTQHRDAIHDAQLNIYGSRLATCGSDRLVKIFEVRPNGQSYPMAELVGHSGPVWKVSWAHPKYGGLLASASYDKKVIIWNEQQGRWQKAYEWAAHEASTTCVAFAPHQYGLMLASASADGDIGILRYDNSSNEWISSKIQKCHEQGVNSVCWAPGSADPAAKKRLVSAGNDKNVKIWAFDDATNEWILEKTLAGHTDFVREAAWCPVTNNGQHTIVSCGMEGNLVLFRTSNIETEEWKAKLLETAPCALYHSSFSPCGSFLSVAGDDNVITIWRENLQGQWIKVPRDNKEREGMSQAVGAPGAQR”, the “soluble on expression in E. coli” value is given as “not soluble”.

Take “MNTRNFSLPQLQNLPIEEARIVADALAVHATSRQIDSAASKLAALAEAGLKGDRQAYAAYQQLLYVLSLSDDVATAQTRRWLARAIYRVEERFMPAADLSRALSEEDFQKRLEQEIAAQSRERHPMSQYVFSGSASRAQLQVFLRHQWFRTFRLYRDAADLLVNLTDVDEAAALARYLYGELGEEDEKGSHPRLLAKLLEAIGLEADFQAVSTMPEEIAYLNNRARAFRHAEVGWGLAVFYITELVVPGNHEKLYRALLQAGLSEDQAEYYKVHISLVPPRAKREWQLIARRIPDVQFQNAFLTSLSQHFRVERAYYDAIWEEMQSVK”: the “soluble on expression in E. coli” value is recorded as “soluble”.

For the sequence “MSLKNLGSPVFFFQERPGKDGKPFKMVKFRSMRDALDSDGIPLPDGERLTPFGKKLRAASLDELPELWNILKGEMSLVGPRPLLMQYLPLYDNFQNRRHEMKPGITGWAQVNGRNALSWDEKFACDVWYIDHFSLCLDIKILLLTVKKVLIKEGISAQGEATMPPFTGKRKLAVVGAGGHGKVVADLAAALGRYREIVFLDDRAQGSVNGFSVIGTTLLLENSLSPEQYDVAVAVGNNRIRRQIAEKAAALGFALPVLVHPDATVSPSATVGQGSVVMAKAVVQAGSVLKDGVIVNTAATVDHDCLLNAFVHISPGAHLSGNTHIGEESWIGTGACSRQQIRIGSRATIGAGAVVVRDVSDGMTVAGNPAKPLPRKNPETSTAEGHHHHHH”, the “soluble on expression in E. coli” value is “not soluble”.

On to “MGSDKIHHHHHHMCQRPPARRATGPFPTLTASRAAARACTVTFQPNCARPCVRQRPEAAIDMAKTYNPAHADISPAARLAALGAGEAVDLGEYRVIRATHQDRPVFFAVRNAMDAIQKHHIEGAFYETEELDIIRRHFAPGETFIDLGANVGNHALYVAMYLEPAKVLCVEPNSLAYENLLANIVLNGVEETFDLSWLGFGVSCNVGDGFGITHWVHNLGGGKLIPRDGGTISLRSGDDILADTKADFIKIDVEGMEMDVLTSLENTVARDRPKIFVEVDNENRDAVLAWVDTHGYTTHETFKRYRDNENFLFVPESESET”, for which the “soluble on expression in E. coli” value is “not soluble”.

As for “MGSDKIHHHHHHMRNWLLPEYIEDVLPRDAYRIEKIRRLIMDMLFAHGYQFVMPPLLEYVESLLAGSGSGMNLRMFKVVDQLSGRMMGLRADMTPQAARIDAHLLNISGVTRLCYASSVVHTVPDEITRTREPFQVGAELYGHSGIESDLEIQCLLLECLSVSGIHSIHLDLGHIRVFRSLIRDSGIKPEFEMELYAALWAKDISSLKELVRTGLNKRLTRSVQNALLLLPELYGDGTVLLSARQHLPDFPEIGEALDQLEHVARILQPYVDRITFDLADLRGYHYHTGMVFAVYTPGCPAPIALGGRYDEIGKSFGRARPATGFSLDLKQLSQLTDMNGYPSGILAPWKPEDEKLAAMVRQLRAEGHIVVTELPGEENQEVTGCDRKLVFRNGNWEIDPVTG”, the “soluble on expression in E. coli” value is on record as “not soluble”.

“MEATNKMKVEVWSDIMCPFCYIGKRNYEAGLKQFADSNNIEIIWKSFQLDPNIPQDTAVTENVYQYLAERKGMSYEQSVQMHDSVVATAKKAGLDYNFDKAVIANSFNAHRMIQLAKTKDLGDAAEERLFYAYFTEGKNVGNSYVLIELGKDIGLTEAEVQTALTDDTYAYKVRQDVEEAQHLGVRGVPFFVFDRKYAVSGAQPPQAFLETLEKSFSEWRKEHPASPFEVSEGPSCSVDGCD”: the “soluble on expression in E. coli” value is listed as “not soluble”.

With “MEMDLPVSAIGFEGFEKRLEISFVEPGLFADPNGKGLRSLSKAQLDEILGPAECTIVDNLSNDYVDSYVLSE”, the “soluble on expression in E. coli” value is given as “soluble”.

As for “GPGSMDGRNGSKRARSEPANGPNQSNVGTSGVEEPHVEEVPARDPELERQLDRLNIDDNLKESLRGLSPSTRGEVMNDIIRSETIERASSLMEQANLLSLIELRRLPELMEEGMSSQHYRADVDDDSELHEFGQALEDMQADGQSPSPQRGRPHGMLHTPGPLILEFLRAFAAGTHAAFADAAGVSEHLNILSELAAQRAMGVTEDVDNMSYEELLELEDKIGYVSRGVKPEDVQKCVKDVPTPHEGNCVVCQCEWSDNAETAPAVVELNRCKHVFHRTCIREWLLKNKKCPVCTQEVV”, the “soluble on expression in E. coli” value is “soluble”.

As for “MWKRLCAGLSCRKFINQVTMTSVNKNRKSRDENEMAKYNEKELADTSKFLSFVLRHKPEAIGIVLDREGWADIDKLILCAQKAGKRLTRALLDTVVATSDKKRFSYSSDGRCIRAVQGHSTSQVAISFAEKTPPQFLYHGTASRFLDEIKKQGLIAGERHYVHLSADEATARKVGARHGSPVILTVKAQEMAKRGLPFWQAENGVWLTSTVAVEFLEWLEHHHHHH”, the “soluble on expression in E. coli” value is “not soluble”.

As for “MMDAKALWQRYQDWLYYHEGLGLYLDISRMRFDDSFVESLQSKFDKAFADMAALEKGAIANPDENRMVGHYWLRNPDLAPSPELTQEIVQTLEQIEAFADQVHTGAVHPPKESRFTDIISIGIGGSALGPQFVAEALSPDSPPLNIHFIDNTDPRGIDRVLSQINNLASTLVLVISKSGGTPEPRNGMIEVKKAYAAKNLDFSKYAVAVTGPDSNLDKVAKSEGWLARFSMYDWVGGRTSEMSAVGLVPAALQGIDIRAMLEGAKEMDDATRVADLKNNPAALLALAWYYSGKGKGGKDMVVLPYKDSLLLFSRYLQQLVMESLGKEKDLDGKIVYQGIAVYGNKGSTDQHAYVQQLREGVPNFFATLIEVLEDRQRKSPEIDPGVTSGDYLCGFLLGTRQALYENNRDSITVTIHQVNPRTVGALIALYERAVGLYASLVNINAYHQPGVEAGKKAAAVILDLQQKVMTVLQTERKALSISEIADKAGASEQIEAIYKILRHLHTNNRGVVLTGDLAKPGSLTVSLS”, the “soluble on expression in E. coli” value is “not soluble”.

With “MMGSKMASASRVVQVVKPHTPLIRFPDRRDNPKPNVSEALRSAGLPSHSSVISQHSKGSKSPDLLMYQGPPDTAEIIKTLPQKYRRKLVSQEEMEFIQRGGPE”, the “soluble on expression in E. coli” value is reported as “soluble”.

For “SNALANRIENVVSQERTRKKFESLVSDSPDGIVHLTTNGTILSVNPSMAGRLGADPDTLVGQQLSAVMDSEAANQRLEAGKSAVENGTATRSEDAVGGRHYHNQYIPVDSHRKSDTFQLVSRDIT”, the “soluble on expression in E. coli” value is reported as “soluble”.

Take “MGHHHHHHSHMAERCFQQAIAFQASCAAVEACFQDLELMHRWLNPLLRCRPEGDWNLDRGSRNRFQIQIPLIYPSLECVVCDRAEGLIVWQFEGFFQGTDTWRWWQEGEHTQLDNCFRFRIAKPWVAWGFDRVAAGVTQRDMQAQLQRLKAIAETLPVASTVTDNLP”: the “soluble on expression in E. coli” value is on record as “not soluble”.

Take “MGSDKIHHHHHHMKSKANQSQGLLLFRLSQHQIFALGTLKIRELVPYTPLSKIPQSHPTILGAATIRGHTIPVVDMAAAIGYRPVSDEERQHCYIIITDCQRMIIGFLVRAIDKIIECNWRDIEAPSANLGKNAFLTGVTRYDNQLVQLLDVELLLSKVFPDAPEANRAILTDVQREKLKPRRILLVDDSKVARKQLSDALDSINIPYFVTPDGREALSIMEQAAAEHHPIDILVSDIEMPGLDGYELAFEVRDNPLLANAYIILHTSLSSEISVSQAHQVGANEALTKFDAHELVEAMLRGAELAAKRAN”: the “soluble on expression in E. coli” value is “not soluble”.

On to “MATNRSRRLRKKLCVDEFQELGFELNLDFKQELDDKAIDAFLDAFLKEAMEANGLGYVGGDDFGLVCLSKRGSVSEEQRAAVEAWLKGRSELTEVTVSPLIDVWY”, for which the “soluble on expression in E. coli” value is “not soluble”.

With “MAHHHHHHMKFDKRECINVDLTSQISEQDVTQSVSKGEKKRDSLPQNEKESELSAEKESQMSQPKADEANLKRENSPLSEPNRKGTSVNKKNDCETSHTDKETNLKEYYKDLPTVIIVIGMAGSGKTTYVGSLYNYLKVEKKKKVYTMNLDPAVKYVQYPVNIDIRDSIKYHEIMKEYKLGPNGAIMTCLNLFATRFDKVIEILEKRKNKLHYIIVDTPGQIEVFNWSASGNIILETLSVSFPVVINYIIDTVRCERPITFMSNMLYACSVLYKARLPFLACFNKVDIIKHDKCIEWMKDYDSFNDDVIHDESYMASFSRSCALMINEFYEGIKTVGISSKTNEGFNSILKNLELLKEEYINEYVTSIEKQMKRIKRKKEKDIKLKMENLLIEKQKDLSSSKNKSVN”, the “soluble on expression in E. coli” value is “not soluble”.

Consider “MENFPIISLDKVNGVERAATMEMIKDACENWGFFELVNHGIPREVMDTVEKMTKGHYKKCMEQRFKELVASKALEGVQAEVTDMDWESTFFLKHLPISNISEVPDLDEEYREVMRDFAKRLEKLAEELLDLLCENLGLEKGYLKNAFYGSKGPNFGTKVSNYPPCPKPDLIKGLRAHTDAGGIILLFQDDKVSGLQLLKDGQWIDVPPMRHSIVVNLGDQLEVITNGKYKSVMHRVIAQKDGARMSLASFYNPGSDAVIYPAPALVEKEAEENKQVYPKFVFDDYMKLYAGLKFQAKEPRFEAMKAMETDVKMDPIATV”, for which the “soluble on expression in E. coli” value was “soluble”.

Consider “SLVVAIDPGHGGQDSGAVGPTGKLEKNVTLAIGRELARQINATPGMKAYMTRDSDVFIPLPMRAQRARAAKADIFISIHADAADNRAATGSSVYVLSTRGASSQRARWLADKENAADLVGGVRLQKAEPTLANVLLDLAQSGYMKASEDAADHVLGSLKRVANNHKSEVEHANFAVLRTSDMPAMLVETAFISNAYEERRLVDPAFQRQLAAAVLEGVITFFTNQPPPGTLFALRAQAEPATTGGSVITSTH”, for which the “soluble on expression in E. coli” value is on record as “not soluble”.
